Assay results published in patent US20090062190A1, “Transcriptional Regulation of Cytokines by LITAF and STAT (6)(B)” (priority 2005, published 2009).

B1: LITAF: LPS-induced TNF-α factor, SEQ ID NO: 1; full length DNA transfected for overexpression (protein, listed as Homo sapiens)
chain: MSVPGPYQAATGPSSAPSAPPSYEETVAVNSYYPTPPAPMPGPTTGLVTGPDGKGMNPPSYYTQPAPIPNNNPITVQTVYVQHPITFLDRPIQMCCPSCNKMIVSQLSYNAGALTWLSCGSLCLLGVHSGLLLHPLLRGCPAGRGPLLSQLQSSPGHLQAFVGLSQTQREPGAAGSPFHLSSSFTPGGGSALVVSPLQGAHLHVFFWGEYVAKLTNLQTPEIAAWSRA
B2: STAT6(B): novel protein, Signal transducer and activator of transcription, SEQ ID NO: 2; full length DNA transfected (protein, listed as Homo sapiens)
chain: MARRNPSPPLQRLRDWGHHHCPCHPGPGWLSTDGEHPAILCQRPVHSLTGGPNPGSCSAQKSLSQEAQGGGFPEPLQAWAGTGCSDSFLSPTSSLLPAALLSLPVCHPDVTPYFIAVLLLLPHDPCPPFPPPFLPNPRALHGCLFLLTTAEQMGKDGRGYVPATIKMTVERGVWWYGQWVGQGLVVLICRKEGWHQPLVSHMYLLPSSRDQPLPTPELQMPTMVPSYDLGMAPDSSMSMQLGPDMVPQVYPPHSHSIPPYQGLSPEESVNVLSAFQEPHLQMPPSLGQMSLSFDQPHPQGLLPCQPQEHAVSSPDPLLCSDVTTVEDSCLSQPVTAFPQGTWIGEDIFPPLLPPTEQDLTKLLLEGQGESGGGSLGAQPLLQPSHYGQSGISMSHMDLRANPSW
B3: STAT6(A): known gene STAT6 (GenBank), referred to as STAT6(A) in this study (protein, UniProt P42226 2-847, looked up)
Signal transducer and …: SLWGLVSKMPPEKVQRLYVDFPQHLRHLLGDWLESQPWEFLVGSDAFCCNLASALLSDTVQHLQASVGEQGEGSTILQHISTLESIYQRDPLKLVATFRQILQGEKKAVMEQFRHLPMPFHWKQEELKFKTGLRRLQHRVGEIHLLREALQKGAEAGQVSLHSLIETPANGTGPSEALAMLLQETTGELEAAKALVLKRIQIWKRQQQLAGNGAPFEESLAPLQERCESLVDIYSQLQQEVGAAGGELEPKTRASLTGRLDEVLRTLVTSCFLVEKQPPQVLKTQTKFQAGVRFLLGLRFLGAPAKPPLVRADMVTEKQARELSVPQGPGAGAESTGEIINNTVPLENSIPGNCCSALFKNLLLKKIKRCERKGTESVTEEKCAVLFSASFTLGPGKLPIQLQALSLPLVVIVHGNQDNNAKATILWDNAFSEMDRVPFVVAERVPWEKMCETLNLKFMAEVGTNRGLLPEHFLFLAQKIFNDNSLSMEAFQHRSVSWSQFNKEILLGRGFTFWQWFDGVLDLTKRCLRSYWSDRLIIGFISKQYVTSLLLNEPDGTFLLRFSDSEIGGITIAHVIRGQDGSPQIENIQPFSAKDLSIRSLGDRIRDLAQLKNLYPKKPKDEAFRSHYKPEQMGKDGRGYVPATIKMTVERDQPLPTPELQMPTMVPSYDLGMAPDSSMSMQLGPDMVPQVYPPHSHSIPPYQGLSPEESVNVLSAFQEPHLQMPPSLGQMSLPFDQPHPQGLLPCQPQEHAVSSPDPLLCSDVTMVEDSCLSQPVTAFPQGTWIGEDIFPPLLPPTEQDLTKLLLEGQGESGGGSLGAQPLLQPSHYGQSGISMSHMDLRANPSW

What was measured:
THP-1 cells [1] = assay: Human cytokine antibody array of conditioned medium from transfected THP-1 cells; format: cell-based; conditions: single transfection
From the text: (§1) Since both LITAF and STAT6(B) were found in the nucleus (FIG. 5), it was further investigated whether they act separately or in concert in mediating activation of TNF-α. While studying the complex, a cytokine array was employed to look at effects on other cytokines (FIG. 6a-6c.). The assay was preformed as follows. Using an empty vector as a control (FIG. 6b1), DNA of LITAF (full length, FIG. 6b2), STAT6(B) (full length; FIG. 6b3) or both full length of LITAF+STAT6(B) (FIG. 6b4), respectively, was transfected or co-transfected into THP-1 cells. Conditioned medium from each treated cell type was then prepared and incubated with membranes containing an array of 44 human protein cytokine antibodies (FIG. 6a). Autoradiographs were scanned, and the density of each cytokine at the corresponding position was determined. […] The relative intensities of each cytokine were normalized to control spots on the same membrane. Major increases or decreases among cytokines are represented graphically in FIG. 6c. […] In order to confirm these findings at the protein level we selected the four most strongly affected cytokines, IL-1α, IL-10, MCP-2 and RANTES and, under the same experimental conditions, measured their protein levels by Western blots.

THP-1 cells [2] = assay: Western blot of cytokine protein levels in transfected THP-1 cells (FIG. 6d); format: cell-based, human; conditions: overexpression in THP-1 cells
From the text: as §1

VEGF promoter = VEGF promoter activity / VEGF expression in transfected U2OS cells; format: cell-based, human; conditions: transient transfection into U2OS cells with pcVEGF or pEVEGF
Method: To determine that this activation occurred at the transcriptional level, VEGF promoter activity assays were performed. A full length VEGF sequence, with or without its enhancer element (−2040˜+1), named pcVEGF or pEVEGF, was cloned into pcDNA3 plasmid. The cloned DNA with LITAF and/or STAT6(B) DNAs were transiently co-transfected into U2OS cells as described in FIG. 11a.

MCP-1 promoter = assay: Luciferase assay of MCP-1 promoter activity after transient transfection (FIG. 16); format: cell-based
From the text: To show this hypothesis, monocyte chemoattractant protein-1 (MCP-1), an important component of the inflammatory process, is selected to determine whether its LPS-triggered transcriptional regulation parallels observations for TNF. Recent studies have shown that the MCP-1 promoter activity can be regulated by NF-KB, STAT1, CEB/P homologous protein (CHOP), heme oxygenase-1 (HO-1) or activated protein C (APC) (Kim, et al, Clin Exp Immunol, 140:450-460, 2005; Jaruga, et al., Am J Physiol Gastrointest Liver Physiol, 287:G471-479, 2004, Abraham, et al., J Neuroimmunol, 160:219-221, 2005; Kanakiriya, et al., Am J Physiol Renal Physiol, 284:F:546-554, 2003). However, the precise LPS signaling pathways leading to MCP-1 induction have not been fully identified. In Examples 1-3, above, the regulation of LPS-induced inflammatory cytokine expression was shown. […] Thus, CTCCC represents a specific sequence in cytokine promoters to which LITAF binds for activity. […] Thus, short peptides with amino acids designed and synthesized based on the potential binding domain of LITAF and STAT6(B) jointly enhance MCP-1 promoter activity.

TNF-α promoter = TNF-α promoter luciferase assay in transfected U2OS cells; format: cell-based, human; conditions: transfection alone
Method: In order to characterize the functional importance of LITAF in the LITAF/STAT6(B) complex, the effect of the complex was examined, with and without silenced LITAF, on TNF-α promoter activity. U2OS cells containing the TNF-promoter linked to luciferase were transiently transfected with LITAF alone, STAT6(B) alone, or both DNAs as described. TNF-α promoter activity was analyzed via luciferase activity. […] The TNF-α concentrations in the supernatants of these transfected THP-1 cells was also measured. […] They further indicate that LITAF might play a leading role in cytokine regulation after the LITAF-STAT6(B) complex translocates to the nucleus in the cells.

[3] = tested on: Porcine aortic endothelial (PAE) cells expressing VEGFR-2 spheroids; assay: In vitro angiogenesis/tubulogenesis assay with supernatants of transfected THP-1 cells; format: cell-based; conditions: supernatant from transfected THP-1 cells, 2 days
Method: In Vitro Angiogenesis/Tubulogenesis assay of VEGF. To expand the observations that STAT6(B) is a potent stimulator of VEGF, and that the LITAF-STAT6(B) complex is inhibitory, culture supernatant fluids of LITAF-, STAT6(B)- or LITAF-STAT6(B)-transfected THP1 cells were tested in an in vitro angiogenesis/tubulogenesis assay. The assay was preformed as follows. Porcine aortic endothelial (PAE) cells expressing VEGFR-2 spheroids were generated as described in the art (Mayer and Rahimi, Ann. NY Acad. Sci, 995:200-207, 2003). A defined number of cells were suspended in DMEM containing 1% fetal bovine serum and 0-0.24% (w/v) carboxymethylcellulose (4000 centipoise) in non-adherent round-bottom 96-well plates under standard cell culture conditions. After 24 hours all cells formed one single spheroid per well (about 750 cells/spheroid). Spheroids were cultured for 2 days before using them in the in vitro angiogenesis assay in the following manner Spheroids containing about 750 cells were embedded in collagen gels. Eight volumes of collagen were mixed with 1 volume of 10×HEPES-buffered saline solution containing 10% 10×DMEM with phenol red. […]
It was determined whether VEGF, induced by STAT6(B), was active and capable of inducing angiogenesis and that the LITAF-STAT6(B) complex effect would inhibit this activity. […]

Molecule	effect on IL-1α (cytokine array) (THP-1 cells [1])	effect on TNF-α (cytokine array) (THP-1 cells [1])	protein levels of IL-1α, IL-10, MCP-2 and RANTES by Western blot (THP-1 cells [2])	VEGF gene expression / transcription (VEGF promoter)	MCP-1 promoter activity / MCP-1 expression (MCP-1 promoter)	effect on GRO (cytokine array) (THP-1 cells [1])	effect on IL-10 (cytokine array) (THP-1 cells [1])	effect on RANTES (cytokine array) (THP-1 cells [1])	TNF-α promoter luciferase activity (TNF-α promoter)	in vitro angiogenesis/tubulogenesis [3]
B1	modestly up-regulated	modestly up-regulated	not altered	did not have any effect	significantly up-regulated	–	–	–	–	–
B2	up-regulated	–	modest induction of all except MCP-2	significantly upregulated	significantly up-regulated	up-regulated	up-regulated	up-regulated	did not substantially change	stimulated
B3	–	–	not altered	–	–	–	–	–	–	–
